{"source": "patent US20060252692A1", "about": "“Inhibitors for use in hemostasis” (ZymoGenetics, Inc., priority 2002, published 2006)", "key": {"[1]": {"tested_on": "atherosclerotic rabbit femoral/iliac artery crush injury", "assay": "Atherosclerotic Folts model, blood flow", "format": "in vivo, New Zealand White rabbits", "details": "1 mg/kg bolus, n=8, vs 1 mg/kg BSA; p=0.0305", "description": "In the present experiment the standard Folts model was modified to study restenosis in rabbits. In this design, New Zealand White rabbits that normally are not prone to atherosclerosis were fed an atherogenic diet (e.g., 2% cholesterol and 6% coconut oil) for two weeks, underwent balloon denudation of an artery segment and then were continually fed the atherogenic diet. Within three weeks, atherosclerotic plaque had accumulated in the balloon-injured area. At this time, the animal was prepped for surgery and the atherosclerotic vessel was injured via a crush procedure and a Folts model study was performed.\nEleven male New Zealand White rabbits weighing 2.0-2.5 kg were used in this study. Atherosclerosis was developed in the right iliac and femoral arteries following a protocol described by Faxon et al., Am J. Cardiol., 1984, 53:72C-76C; and Faxon et al., Atherosclerosis. 1982, 2:125-133), with the following modifications. […]\nAnimals were administered 100 U/kg heparin. […] The flow rate was monitored and the vessel tapped to release the thrombus when the flow rate approached 0.7 ml/min. […] Blood flow through the injured vessel was monitored for 60 minutes post bolus infusion. […] Blood pressure was monitored throughout and, prior to termination, blood samples for coagulation factors were collected. […]\nStatistical Analysis. All values are expressed as mean±SEM. […]"}, "[2]": {"tested_on": "CCC4 osteoblast cell line, serum response element (SRE) luciferase", "assay": "SRE-luciferase assay in CCC4 osteoblast cell line", "format": "cell-based, mice", "details": "1000 ng/ml zsig37, four hours", "description": "Zsig37 polypeptides were assayed in a high throughput, in vitro assay to identify substances that selectively activate cellular responses in immortalized osteoblast cell lines. A mature osteoblast cell line derived from p53−/− (deficient) mice, CCC4, that is transfected with a plasmid containing an inducible serum response element (SRE) driving the expression of luciferase was used in the assay. These cells also express endogenous PTH, PDGF and bFGF receptors.\nCCC4 lines were trypsinized and adjusted to 5×10^4 cells/ml in plating medium (alpha-MEM, 1% heat inactivated fetal bovine serum, 1 mM Na pyruvate and 2 mM L-glutamate) and plated (200 μl/well) into Dynatech Microlite opaque white microtiter plates (Dynatech, Chantilly, Va.) and incubated overnight at 37° C., 5% CO2. The growth medium was then aspirated and replaced with 50 μl/well assay medium (F-12 HAM, 0.5% bovine serum albumin, 20 mM HEPES, 1 mM sodium pyruvate and 2 mM L-glutamate). […] Fifty microliters/well of luciferase substrate (Luciferase Assay Reagent, E1501, Promega Corp.) was added and the Luciferase activity was detected using a Labsystems LUMINOSKAN at 2 second/well following a one second delay. The average basal (uninduced) signal was subtracted from readings as a percentage of the maximal induction produced by 3 ng/ml bFGF. […]"}, "[3]": {"tested_on": "carotid artery crush injury, vascular occlusion", "assay": "Modified rabbit carotid artery crush injury model", "format": "in vivo, New Zealand White rabbits", "details": "2-13.5 μg/kg", "description": "Zsig37 was administered in a modified rabbit carotid artery injury model (Folts et al., Circulation 79:116 (1989), and Golino et al., Thrombosis and Haemostasis 67:302 (1992)) to determine the degree of protection offered in preventing vascular occlusion following a crush injury.\nThirty-four male New Zealand White rabbits, approximately three to six months old (R&R Rabbitry; Stanwood, Wash.) were divided into two groups. Fifteen rabbits received doses of zsig37 ranging from 2-13.5 μg/kg and 19 control rabbits were injected with PBS or equivalent amounts of PBS or zsig39, another adipocyte complement related protein (WO99/10492). The rabbits were anesthetized with ketamine (50 mg/kg, IM) and maintained on halothane inhalation anesthesia for the duration of the study. The hair was shaved from the ears and neck and an angiocatheter was placed in the marginal ear vein for IV support. A midline incision was made in the neck and the carotid artery was accessed. Approximately 5 cm of the common carotid artery proximal to the internal/external bifurcation was exposed via blunt dissection away from the surrounding tissue and any visible side branches were cauterized. A flow probe (Transonic Systems, Inc.; Ithaca N.Y.) was placed distal to the anticipated injury site and a baseline blood flow was established. A 2.5-3.0 cm section of the vessel was then isolated from circulation using atraumatic vascular clamps. Following removal of the blood from the vessel segment, 0.4 ml of zsig37 in 0.9% sodium chloride or […] 0.9% sodium chloride as a control, was injected into the empty vessel segment using a 30 G needle. The vessel was left undisturbed for a five-minute pre-injury treatment. A 1.0 cm crush injury was then inflicted into the center of the vessel segment using a guarded hemostat and left undisturbed for 10 minutes. The vessel clamps were then removed and blood flow reestablished. Blood flow was monitored continuously for 60 minutes after which time the rabbits were euthanized and the vessel excised for histological analysis."}}}
{"molecule": "zsig37: adipocyte complement related protein homolog, polypeptide of SEQ ID NO:2, inhibits collagen-mediated platelet activation and the complement pathway (protein, listed as Homo sapiens) MGSRGQGLLLAYCLLLAFASGLVLSRVPHVQGEQQEWEGTEELPSPPDHAERAEEQHEKYRPSQDQGLPASRCLRCCDPGTSMYPATAVPQINITILKGEKGDRGDRGLQGKYGKTGSAGARGHTGPKGQKGSMGAPGERCKSHYAAFSVGRKKPMHSNHYYQTVIFDTEFVNLYDHFNMFTGKFYCYVPGLYFFSLNVHTWNQKETYLHIMKNEEEVVILFAQVGDRSIMQSQSLMLELREQDQVWVRLYKGERENAIFSEELDTYITFSGYLVKHATEP", "values": [{"measurement": "blood flow in final 30 minutes", "setting": "[1]", "value": "continuously patent"}, {"measurement": "luciferase expression as percentage of the maximal induction produced by 3 ng/ml bFGF", "setting": "[2]", "value": "73 to 75", "unit": "%"}, {"measurement": "dose dependency of time patent", "setting": "[3]", "value": "No dose dependency was seen"}, {"measurement": "mean percent time patent", "setting": "[3]; combined zsig37 treated groups, 60 minutes, standard error ±10.3%, controls 13.5%", "value": 37.2, "unit": "%"}, {"measurement": "time patent compared to controls (meta analysis of all doses)", "setting": "[3]; unpaired t-test P=0.019", "value": "significant increase in time patent"}]}
